Reference: publication PMC5890266, “Targeting the polyadenylation factor EhCFIm25 with RNA aptamers controls survival in Entamoeba histolytica”

Target: T1, EhCFIm25 wild type (Entamoeba histolytica, UniProt C4M2T1 1-255)
T1 sequence: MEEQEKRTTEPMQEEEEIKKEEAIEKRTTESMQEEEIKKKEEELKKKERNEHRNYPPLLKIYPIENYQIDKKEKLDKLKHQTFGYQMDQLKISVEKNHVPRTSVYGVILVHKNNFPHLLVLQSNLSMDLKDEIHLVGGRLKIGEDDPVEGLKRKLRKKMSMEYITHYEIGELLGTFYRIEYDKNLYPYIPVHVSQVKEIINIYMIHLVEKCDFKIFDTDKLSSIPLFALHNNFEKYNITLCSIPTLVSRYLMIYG
Assay: EMSA; REMSA: RNA probe (100 ng/ul) with 20 ug EhCFIm25 or 50 ug extract, room temperature 20 min, 10% non-denaturing PAGE, LightShift Chemiluminescent RNA EMSA Kit; buffer, salt and pH not stated
Conditions: protein: recombinant, tags: 6xHis (pRSET vector), chain copies: 2

## AAUAAUACGACUCACUAUAGACGAAAUGGUUGUCAACGACGAUUA (ssRNA) [GUUG-probe]
label: biotin as probe
  binding result: binds

## AAUAAUACGACUCACUAUAGACGAAAUGCAACUCAACGACGAUUA (ssRNA) [CAAC-probe]
label: biotin
  binding result: no binding

B1: Ehthio-3'UTR (ssRNA)
RNA: AAGGGUAGGAAAAAUUGAAACAUUAAAAGAUUUUCCUUCUUUUAAAGACAGAGUAAAAGAACCAUAUGUUGCUCCAAAAUAUGAAGAAGAAGAACUUUAAAUAAUAACUUUUUCAAGAACAAAAAUUAAUAACAAAUUUAUUUUAUUUGAUUUUACAAUUCUUGUUAUUAUAUGUUGAUAUUUAUUUAAAAUACUCUUUCUUUUAAUUUUUGUUUUUAUUAACAAUAUAUUUUAUAUUAAAUAAAGUUUAAUGAAAAAAAAGUAUUAAAAAGUUGUAAUAAACCUAAUUAAUAAAUGUUU
label: biotin (Biotin RNA Labeling Mix)
  binding result: binds
